# Data published in patent US20240209089A1 (SUZHOU SMARTNUCLIDE BIOPHARMACEUTICAL, published 2024).
# Target: T1, CD8α-Fc fusion protein (human)
# T1 construct: also called CD8 α-Fc protein; CD8α-Fc tag antigen
# Assay: phage ELISA on coated CD8α-Fc
# Method: After 3-4 rounds of panning, 96 clones were randomly picked from the plate subjected to the last round of panning for identification. 96 single colonies were randomly picked and respectively cultured to produce and purify phages. The plate was coated with CD8α-Fc fusion protein at 4° C. overnight, then blocked with 3% BSA, and reacted for 1 hour at 37° C. Subsequently, the phage supernatant obtained after infection was added into each well (the control group was blank phage), and incubated for 1 hour at 37° C. After PBST washing, horseradish peroxidase labeled anti-M13 secondary antibody (purchased from Beijing Yiqiao Shenzhou Biotechnology Co., Ltd.) was added, and reacted for 1 hour at room temperature. After washing, a tetramethylbenzidine (TMB) chromogenic solution was added and an absorption value at 450 nm was read. Meanwhile, the plate was coated with an Fc protein at 4° C. overnight, blocked with 3% BSA, and reacted for 1 hour at 37° C. After washing, the phage supernatant obtained after infection (the control group was blank phage) was added to react for 1 hour at 37° C. After washing, the horseradish peroxide labeled anti-M13 secondary antibody (purchased from Beijing Yiqiao Shenzhou Biotechnology Co., Ltd.) was added to react for 1 hour at room temperature. After that, a TMB chromogenic solution was added and an absorption value at 450 nm was read. Where, when a ratio obtained by an OD value being divided by an OD value of blank control was >=4, it was judged that a candidate antibody could bind the CD8α-Fc protein; meanwhile, a ratio obtained by the CD8α-Fc binding OD value of the above antibody capable of binding the CD8 α-Fc antigen protein being divided by the Fc protein binding OD value was >=5, it was considered that the candidate antibody could specifically bind the CD8α part rather than the Fc part. […] The bacteria in candidate clone well were transferred to an LB liquid culture medium containing 100 μg/mL ampicillin so as to perform plasmid extraction and sequencing.
# T1 sequence (chain, as listed by the source): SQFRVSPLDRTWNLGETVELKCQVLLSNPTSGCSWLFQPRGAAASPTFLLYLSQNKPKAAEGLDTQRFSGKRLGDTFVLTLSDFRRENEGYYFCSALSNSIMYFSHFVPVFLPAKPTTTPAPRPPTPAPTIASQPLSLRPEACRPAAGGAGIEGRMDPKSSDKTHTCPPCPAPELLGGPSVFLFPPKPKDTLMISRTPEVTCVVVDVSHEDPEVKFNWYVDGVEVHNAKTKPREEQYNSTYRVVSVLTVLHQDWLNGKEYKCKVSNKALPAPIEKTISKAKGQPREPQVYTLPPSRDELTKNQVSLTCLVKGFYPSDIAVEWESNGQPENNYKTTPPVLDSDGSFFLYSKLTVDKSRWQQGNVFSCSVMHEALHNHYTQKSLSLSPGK
row,Binder,OD450
1,phage clone No. 42 (C42) (VHH) VHH: QVQLVESGGGLVQAGGSLRLSCAASGLTFEDYAIGWFRQAPGKEREGISCIRIYDGNTYSAESVKGRFTISSDNAKNQVYLQINTLKPEDTAVYYCAAGSYYSCSVYPDYDMDYWGKGTLVTVSS,3.18
2,phage clone No. 37 (C37) (VHH) VHH: QLQLVESGGGLVQAGGSLRLSCAASGLTFEDYAIGWFRQAPGKEREGISCIRIYDGNTYSAESVKGRFTISSDNAKNQVYLQINTLKPEDTAVYYCAAGSYYSCSVYPDYDMDYWGKGTLVTVSS,3.2
3,phage clone No. 2 (C2) (VHH) VHH: QVQLVESGGGLVQPGGSLRLSCAASGFTLDYYAIGWFRQAPGKEREGISCIRIYDGNTYSAESVKGRFTISSDNAKNQVYLQINTLKPEDTAVYYCAAGSYYSCSVYPDYDMDYWGKGTLVTVSS,3.21
4,phage clone No. 46 (C46) (VHH) VHH: QVQLVESGGGLVQAGGSLRLSCAASGVTFDDLAIGWFRQVPGKGREGVSTIGTSDGTAYYADSVKGRFTISSDNAKNTVYLQMNSLKPEDTAVYYCAVDLDYGLGSLLPMGYDYWGQGTQVTVSS,2.35
5,phage clone No. 20 (C20) (VHH) VHH: QVQLVESGGGLVQPGGSLRLSCAASGSIFSINTMGWYRQAPGKQRELVATMHSTGSTNYADSVKGRFTISRDNAKKTVYLQMNSLEPDDTAVYYCHVDDTGWGTVDSWGQGTQVTVS,3.19
6,phage clone No. 54 (S6) (VHH) VHH: QVQLVESGGGLVQPGGSLRLSCAVSGTIFSINTMGWYRQVPGKQRELVATITSSGSTKYADSVKGRFTVSRDNAKRTVFLQMDSLKPEDTAVYYCHANDVGWGTVNAWGQGTLVTVSS,1.3
7,phage clone No. 53 (S5) (VHH) VHH: QVQLVESGGGLVQAGGSLRVSCAASGGTFSSTAMGWFRQAPGKEREFVAAISWSGGYTYYADSVRGRFTISRDNALNTVSLQMNSLKPEDTAVYYCAADISGLDTVAAGIFTEPNIDYWGKGTLVTVSS,1.2
8,phage clone No. 77 (S29) (VHH) VHH: QLQLVESGGGLVQPGGSLRLSCTASGIIFSINTMGWYRQAPGKQRELVADISSFGSTNYADSVKGRFTISRDNAKNSVYLQMNSLKPEDTAVYYCNAHDKGWGTVDSWGQGTQVTVSS,1.63
9,phage clone No. 29 (C29) (VHH) VHH: QVQLVESGGGLVQAGGSLRLSCVASGFTSDDYVIGWFRQAPGKEREGVSCISSSDGTTNYADSVKGRFTISSDNAKNTVYLQMNSLKPEDTAVYYCAADPMRVCPYSGTYYGILGFGTSGQGTQVTVSS,1.75
10,phage clone No. 70 (S22) (VHH) VHH: QLQLVESGGGLVQPGGSLRLSCAASGSIFSINTMGWYRQAPGKQRELVATMHSTGSTNYADSVKGRFTISRDNAKKTVYLQMNSLKPDDTAVYYCHVDDMGWGTVDSWGQGTQVTVSS,1.73
11,phage clone No. 27 (C27) (VHH) VHH: QLQLVESGGGLVQPGGSLRLSCVVSGSIFAINTMGWYRQAPGKQRELVATMHSGGSTNYADSVKGRFTISRDAAPKTVYLQMNSLKPADTAVYYCHADDSGWGTVDSWGQGIQVTVSS,2.74
12,phage clone No. 24 (C24) (VHH) VHH: QVQLVESGGGLVQPGGSLRLSCAASGPIFSINTMGWYRQAPGKQRELVATMHSTGSTNYADSVKGRFTISRDNAKKTVYLQMNSLKPDDTAVYYCHVDDTGWGTVDSWGQGIQVTVSS,2.35
13,phage clone No. 66 (S18) (VHH) VHH: QLQLVESGGGLVQPGGSLRLSCAASGSIFSINTMGWYRQAPGKQRELVATMTSHGSTNYADSVKGRFTISRDNSKNTVYLQMNSLKLQDTAVYYCNANDMGWGTVDAWGQGTLVTVSS,1.72
14,phage clone No. 61 (S13) (VHH) VHH: QLQLVESGGGLVQPGGSLRLSCVVSGSIFAINTMGWYRQAPGKQRELVATMHSYGSTNYADSVKGRFTISRDNAKKTVYLQMNSLKPADTAVYYCHADDTGWGTVDSWGQGTQVTVSS,1.71
15,phage clone No. 45 (C45) (VHH) VHH: QVQLVESGGGLVQPGGSLRLSCAASGPIFSINTMGWYRQVPGKQRELVATMHSTGSTNYADSVKGRFTISRDNAKKTVYLQMNSLKPDDTAVYYCHVDDTGWGTVDSWGQGTQVTVSS,2.42
16,phage clone No. 30 (C30) (VHH) VHH: QVQLVESGGGLVQPGGSLRLSCVASGSIFAINTMGWYRQAPGKQRELVADMHSTGSTNYADSVKGRFTISRDNAKKKVYLQMNSLKPDDTAVYYCHVDDRGWGTVDSWGQGTQVTVSS,2.03
17,phage clone No. 55 (S7) (VHH) VHH: QLQLVESGGGLVQPGGSLRLSCAASGSIFSINGMGWYRQAPGKQREAVAVITSGGKIDYLDSVKGRFTISRDSAKNTVALQMNSLKPEDTAVYYCNAYGDVRRGEVRWGQGTQVTVSS,1.61
18,phage clone No. 71 (S23) (VHH) VHH: QVQLVESGGGLVQPGGSLRLSCAASGSIFSINGMGWYRQAPGKQRELVAAITSGGKTDYLDSVKGRFTISRDSAKNTVALQMNSLKPEDTAVYYCNAYGDVQRGEVRWGQGTQVTVSS,1.62

# Target: T2, human CD8α full-length protein (human, UniProt P01732 22-235)
# T2 construct: whole, on cells; The same entry is used for MC38-CD8α transfectants and for human CD8+ T cells from peripheral blood; the assay field says which cells; also called cell surface CD8α; MC38-CD8α cells
# Assay: flow cytometry on MC38-CD8α cells, secondary antibody-PE
# Method: Mouse colon cancer MC38 cell lines stable transfected with human CD8α full-length protein gene were constructed to obtain MC38 cells (MC38-CD8α cells) stably expressing human CD8α proteins on the cell membrane. Prior to use, the cells were cultured to >90% convergence. The anti-CD8α single domain antibody was used to perform flow cytometry on these cells for quantitative analysis of indirect immunofluorescence staining so as to determine the quantity of receptors on surface of each cell.
# The cells were collected and suspended to a concentration of 2.5×10⁶ cells/mL. 200 μL of cell aliquot samples were mixed with 20 μL of primary antibody, and the obtained mixture was incubated for 30 min on ice. The cells were centrifuged, washed and re-suspended, then 5 μL of secondary antibody-PE conjugate was added, and then the above mixture was incubated for 30 minutes on ice. The cells were washed twice, re-suspended and underwent flow cytometry on BD FACSCelesta™. For each tube, at least 5×10⁴ events were collected. All the analyses were single colors, and PE was detected in […].
# T2 sequence (P01732 22-235): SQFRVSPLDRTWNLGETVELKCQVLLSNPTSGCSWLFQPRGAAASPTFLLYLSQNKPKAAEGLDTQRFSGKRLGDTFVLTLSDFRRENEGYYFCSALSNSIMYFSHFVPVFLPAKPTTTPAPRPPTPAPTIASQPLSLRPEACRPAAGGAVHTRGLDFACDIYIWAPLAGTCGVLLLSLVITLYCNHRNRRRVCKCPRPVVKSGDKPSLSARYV
row,Binder,Positive rate (%)
1,"anti-CD8α single domain antibody C20 (VHH, not shown: small tags and cut ends, Only the E. coli expression is described for this antibody) VHH: QVQLVESGGGLVQPGGSLRLSCAASGSIFSINTMGWYRQAPGKQRELVATMHSTGSTNYADSVKGRFTISRDNAKKTVYLQMNSLEPDDTAVYYCHVDDTGWGTVDSWGQGTQVTVS",98.9
2,"anti-CD8α single domain antibody S6 (VHH, not shown: small tags and cut ends, Only the E. coli expression is described for this antibody) VHH: QVQLVESGGGLVQPGGSLRLSCAVSGTIFSINTMGWYRQVPGKQRELVATITSSGSTKYADSVKGRFTVSRDNAKRTVFLQMDSLKPEDTAVYYCHANDVGWGTVNAWGQGTLVTVSS",97.5
3,"anti-CD8α single domain antibody S22 (VHH, not shown: small tags and cut ends, Only the E. coli expression is described for this antibody) VHH: QLQLVESGGGLVQPGGSLRLSCAASGSIFSINTMGWYRQAPGKQRELVATMHSTGSTNYADSVKGRFTISRDNAKKTVYLQMNSLKPDDTAVYYCHVDDMGWGTVDSWGQGTQVTVSS",97
4,"anti-CD8α single domain antibody S32 (VHH, not shown: small tags and cut ends, Only the E. coli expression is described for this antibody) VHH: QLQLVESGGGLVQPGGSLRLSCAASGSIFSINTMGWYRQAPGKQRELVATMHSTGSTNYADSVKGRFTISRDNAKKTVYLQMNSLKPDDTAVYYCHVDDMGWGTVDSWGQGTQVTVSS",99.1
5,"anti-CD8α single domain antibody C45 (VHH, not shown: small tags and cut ends, Only the E. coli expression is described for this antibody) VHH: QVQLVESGGGLVQPGGSLRLSCAASGPIFSINTMGWYRQVPGKQRELVATMHSTGSTNYADSVKGRFTISRDNAKKTVYLQMNSLKPDDTAVYYCHVDDTGWGTVDSWGQGTQVTVSS",99.1
6,"anti-CD8α single domain antibody C30 (VHH, not shown: small tags and cut ends, Only the E. coli expression is described for this antibody) VHH: QVQLVESGGGLVQPGGSLRLSCVASGSIFAINTMGWYRQAPGKQRELVADMHSTGSTNYADSVKGRFTISRDNAKKKVYLQMNSLKPDDTAVYYCHVDDRGWGTVDSWGQGTQVTVSS",98.8
7,"anti-CD8α single domain antibody S18 (VHH, not shown: small tags and cut ends, Only the E. coli expression is described for this antibody) VHH: QLQLVESGGGLVQPGGSLRLSCAASGSIFSINTMGWYRQAPGKQRELVATMTSHGSTNYADSVKGRFTISRDNSKNTVYLQMNSLKLQDTAVYYCNANDMGWGTVDAWGQGTLVTVSS",99.2
8,"anti-CD8α single domain antibody S7 (VHH, not shown: small tags and cut ends, Only the E. coli expression is described for this antibody) VHH: QLQLVESGGGLVQPGGSLRLSCAASGSIFSINGMGWYRQAPGKQREAVAVITSGGKIDYLDSVKGRFTISRDSAKNTVALQMNSLKPEDTAVYYCNAYGDVRRGEVRWGQGTQVTVSS",99.3
9,"anti-CD8α single domain antibody S23 (VHH, not shown: small tags and cut ends, Only the E. coli expression is described for this antibody) VHH: QVQLVESGGGLVQPGGSLRLSCAASGSIFSINGMGWYRQAPGKQRELVAAITSGGKTDYLDSVKGRFTISRDSAKNTVALQMNSLKPEDTAVYYCNAYGDVQRGEVRWGQGTQVTVSS",99.3
